Values belong to the binder of their own block, whether it stands above or below them.
Legend:
[1] = target: T1, human luteinizing hormone receptor (LHR) (human, UniProt P22888 27-699); experiment: flow cytometry on ES-2 human ovarian carcinoma cells; ratio of antibody MFI to isotype MFI
T1 construct: Endogenous LHR on human ovarian carcinoma cell lines (ES-2, SKOV3); also called LHR on ES-2 human ovarian carcinoma cells; LHR on SKOV3 cells
From the text: (§1) Antibodies against the […] extracellular hormone binding domain of LHR were generated by repeated immunization of 4 week-old-BALB/c and NIH Swiss mice with genetically engineered LHR-Fc. As shown below in FIG. 3, the leader sequence and first part of the human LHR G-protein was used to generate the LHR-Fc used in the immunization and screening methods to generate and identify high binding antibodies. […] A typical flow cytometry screen of hybridomas positive by initial ELISA screen using LHR-Fc coated plates is shown below in FIG. 4 using the ES-2 ovarian carcinoma cell line. […] These few candidate hybridomas were then subcloned by dilution in 96 well plates and expanded for freezing in vials. After further screening by flow cytometry, specific subclones were selected for large scale production using 2L vessels (GRrex, 100L, Wolfson). Filtered supernatants were then subjected to antibody purification using tandon protein A or G and ion exchange chromatography methods performed routinely in the laboratory. Once purified, five antibody subclones designated 8B7-3, 5F4-21, 5B1-1, 2H11-37, and 138-2 were sequenced to facilitate the engineering of single chain genes used for the construction of LHR CARs described below.

[2] = target: T1, human luteinizing hormone receptor (LHR); experiment: flow cytometry screen of LHR-Fc ELISA positive hybridomas on ES-2 ovarian carcinoma cells; ratio of antibody MFI to isotype MFI
From the text: as §1

T1 sequence (P22888 27-699 limits assumed): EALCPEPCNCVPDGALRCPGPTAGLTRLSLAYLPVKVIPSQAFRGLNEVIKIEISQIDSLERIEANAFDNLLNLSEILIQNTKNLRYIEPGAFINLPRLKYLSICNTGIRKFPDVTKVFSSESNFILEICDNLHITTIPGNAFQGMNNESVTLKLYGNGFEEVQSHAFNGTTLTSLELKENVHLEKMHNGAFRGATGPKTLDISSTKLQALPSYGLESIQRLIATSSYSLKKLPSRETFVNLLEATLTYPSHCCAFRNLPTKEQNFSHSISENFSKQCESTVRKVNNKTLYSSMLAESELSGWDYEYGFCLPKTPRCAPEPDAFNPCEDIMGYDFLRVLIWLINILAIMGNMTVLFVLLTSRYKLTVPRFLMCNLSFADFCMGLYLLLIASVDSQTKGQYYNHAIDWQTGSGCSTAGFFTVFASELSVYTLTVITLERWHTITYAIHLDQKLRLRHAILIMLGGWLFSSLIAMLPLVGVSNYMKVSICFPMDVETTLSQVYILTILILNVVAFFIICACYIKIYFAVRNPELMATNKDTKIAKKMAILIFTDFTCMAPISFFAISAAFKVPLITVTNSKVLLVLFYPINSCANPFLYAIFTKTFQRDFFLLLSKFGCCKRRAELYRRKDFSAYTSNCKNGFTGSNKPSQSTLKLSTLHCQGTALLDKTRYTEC

binding result [1]: binds
B1: LHR Antibody #5F4-21 (antibody, V domains shown)
VH: EVQLQESGPDLVKPSQSLSLTCTVTGYSITSGYGWHWIRQFPGNKLEWMGYIHYSGSTTYNPSLKSRISISRDTSKNQFFLQLNSVTTEDTATYYCARSLRYWGQGTTLTVSS
VL: DIVMTQTPAIMSASPGQKVTITCSASSSVNYMHWYQQKLGSSPKLWIYDTSKLAPGVPARFSGSGSGTSYSLTISSMEAEDAASYFCHQWSSYPYTFGSGTKLEIK
notes: Mouse monoclonal antibody from a hybridoma subclone

binding result [2]: binds
B2: LHR Antibody #8B7-3 (antibody, V domains shown)
VH: QVKLQQSGPELVKPGASVKISCKASGYSFTGYYMHWVKQSHGNILDWIGYIYPYNGVSSYNQKFKGKATLTVDKSSSTAYMELRSLTSEDSAVYYCARERGLYQLRAMDYWGQGTSVTVSS
VL: DIVLTQTPATLSVTPGDSVSLSCRASQSISNNLHWYQQKSHESPRLLIKNASQSISGIPSKFSGSGSGTDFTLRINSVETEDFGMYFCQQSNSWPYTFGSGTKLEIK
notes: Mouse monoclonal antibody from a hybridoma; also called hybridoma 8B7
